Test results taken from the supplement of paper PMC6757056.
± gives the standard deviation of the averaged measurements.

B1: library; a variant is named by its letters at N, in order (parent)
chain: GCUGUCACCGGUGUAUUACCCUAGUGGUCGACCGGUCUGAUGAGUCUNNNNNNAGACGAAACAGC

Columns and labels:
[1] = variants of: B1; experiment: normalized RNA/DNA level with ligand (relative to sTRSVctl = 100) (log10 (% of sTRSVctl)); ligand: hypoxanthine (xanthine aptamer); higher = less ribozyme self-cleavage, higher mRNA level; conditions: ligand concentration (+) RNA-Seq: 5 mM, HEK293T, reporter: mCherry (pCS4076), ligand present: yes
Method in brief: (§1)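 HEK293T cells were transfected with library plasmids carrying ribozyme switches linked to an mCherry reporter, or an eGFP reporter in some ligand experiments, at 4 µg per well of a 6-well plate, with any ligand added 1 h beforehand. After 72 h, total RNA was extracted with EDTA, reverse-transcribed, amplified, barcoded and sequenced. RNA level was defined as RNA reads over DNA reads, normalized to a spiked-in non-cleaving sequence or to the top-ranked sequences. That value was multiplied by 100 and converted to log10, the top set was 25 sequences, and only sequences with ≥100 DNA reads were retained.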

[2] = variants of: B1; experiment: normalized RNA/DNA level without ligand (relative to sTRSVctl = 100) (log10 (% of sTRSVctl)); ligand: hypoxanthine (xanthine aptamer); higher = less ribozyme self-cleavage, higher mRNA level; conditions: HEK293T, reporter: mCherry (pCS4076), ligand present: no
Method in brief: as §1

Row | Variant | normalized RNA/DNA level with ligand (log10) [1] | normalized RNA/DNA level without ligand (log10) [2]
1 | UAGACG | 1.8696 ± 0.00011 | 1.642 ± 0.013
2 | CAGACU | 1.92 ± 0.043 | 1.92 ± 0.022
3 | AAGACU | 1.95 ± 0.064 | 1.856 ± 0.0071
4 | UAGACU | 1.925 ± 0.0021 | 1.83 ± 0.02
5 | CAGAGC | 1.926 ± 0.019 | 1.74 ± 0.022
6 | AAGAGC | 1.9 ± 0.046 | 1.532 ± 0.009
7 | UAGAGC | 1.908 ± 0.017 | 1.706 ± 0.0082
8 | CAGAGU | 1.97 ± 0.035 | 1.79 ± 0.056
9 | GAGAGU | 1.87 ± 0.091 | 1.49 ± 0.029
10 | CAGAUA | 1.88 ± 0.052 | 1.57 ± 0.043
11 | UAGAUA | 1.917 ± 0.0088 | 1.82 ± 0.071
12 | CAGAUC | 1.98 ± 0.089 | 1.91 ± 0.032
13 | UAGAUC | 1.964 ± 0.012 | 1.955 ± 0.018
14 | CAGAUG | 1.94 ± 0.03 | 1.808 ± 0.011
15 | CAGAUU | 1.96 ± 0.024 | 1.768 ± 0.015
16 | GAGAUU | 1.92 ± 0.041 | 1.82 ± 0.03
17 | UAGAUU | 1.93 ± 0.027 | 1.866 ± 0.017
18 | CAGCAA | 1.885 ± 0.01 | 1.637 ± 0.014
19 | CAGCAC | 1.94 ± 0.035 | 1.81 ± 0.034
20 | AAGCAC | 1.89 ± 0.027 | 1.69 ± 0.047
21 | UAGCAC | 1.927 ± 0.0061 | 1.8 ± 0.018
22 | CAGCAG | 1.89 ± 0.019 | 1.68 ± 0.11
23 | AAGCAU | 1.88 ± 0.027 | 1.705 ± 0.0018

Row | Variant | normalized RNA/DNA level with ligand (log10) [1] | normalized RNA/DNA level without ligand (log10) [2]
24 | GAGCAU | 1.944 ± 0.018 | 1.72 ± 0.022
25 | UAGCAU | 1.91 ± 0.026 | 1.772 ± 0.0045
26 | CAGCCA | 1.9708 ± 0.0019 | 1.78 ± 0.051
27 | UAGCCA | 1.93 ± 0.032 | 1.91 ± 0.082
28 | CAGCCC | 2.03 ± 0.052 | 1.94 ± 0.023
29 | AAGCCC | 1.97 ± 0.032 | 1.9 ± 0.041
30 | GAGCCC | 1.99 ± 0.053 | 1.906 ± 0.013
31 | UAGCCC | 1.956 ± 0.018 | 1.885 ± 0.0052
32 | CAGCCG | 1.947 ± 0.0075 | 1.88 ± 0.071
33 | GAGCCG | 1.85 ± 0.034 | 1.44 ± 0.021
34 | UAGCCG | 1.982 ± 0.016 | 1.728 ± 0.0043
35 | CAGCCU | 2.039 ± 0.0086 | 1.91 ± 0.038
36 | AAGCCU | 1.96 ± 0.02 | 1.85 ± 0.059
37 | GAGCCU | 2.01 ± 0.028 | 1.94 ± 0.024
38 | UAGCCU | 2 ± 0.037 | 1.953 ± 0.006
39 | CAGCGA | 1.94 ± 0.027 | 1.79 ± 0.035
40 | CAGCGC | 2.01 ± 0.038 | 1.847 ± 0.007
41 | AAGCGC | 1.89 ± 0.051 | 1.6 ± 0.039
42 | UAGCGC | 1.95 ± 0.023 | 1.85 ± 0.057
43 | GAGCGU | 1.915 ± 0.0047 | 1.647 ± 0.0019
44 | UAGCGU | 1.88 ± 0.055 | 1.46 ± 0.12
45 | CAGCUA | 1.903 ± 0.012 | 1.65 ± 0.056
46 | AAGCUA | 1.91 ± 0.021 | 1.68 ± 0.056

Row | Variant | normalized RNA/DNA level with ligand (log10) [1] | normalized RNA/DNA level without ligand (log10) [2]
47 | UAGCUA | 1.96 ± 0.078 | 1.884 ± 0.0057
48 | AAGCUC | 1.975 ± 0.002 | 1.959 ± 0.01
49 | GAGCUC | 1.99 ± 0.045 | 1.91 ± 0.034
50 | UAGCUC | 1.98 ± 0.034 | 2.03 ± 0.038
51 | CAGCUG | 1.946 ± 0.019 | 1.89 ± 0.028
52 | UAGCUG | 1.944 ± 0.011 | 1.77 ± 0.02
53 | CAGCUU | 1.954 ± 0.0095 | 1.86 ± 0.027
54 | AAGCUU | 1.94 ± 0.062 | 1.86 ± 0.023
55 | GAGCUU | 1.92 ± 0.1 | 1.846 ± 0.0057
56 | UAGCUU | 2.003 ± 0.015 | 1.84 ± 0.024
57 | CAGGAC | 1.88 ± 0.063 | 1.782 ± 0.01
58 | AAGGAC | 1.905 ± 0.017 | 1.648 ± 0.012
59 | UAGGAC | 1.934 ± 0.0064 | 1.83 ± 0.037
60 | CAGGAG | 1.91 ± 0.022 | 1.473 ± 0.012
61 | UAGGAG | 1.872 ± 0.018 | 1.41 ± 0.04
62 | GAGGAU | 1.955 ± 0.019 | 1.7 ± 0.074
63 | CAGGCA | 1.912 ± 0.008 | 1.68 ± 0.069
64 | AAGGCA | 1.94 ± 0.035 | 1.64 ± 0.043
65 | UAGGCA | 1.905 ± 0.01 | 1.812 ± 0.0025
66 | CAGGCC | 2 ± 0.027 | 2 ± 0.032
67 | AAGGCC | 1.96 ± 0.066 | 1.9104 ± 0.0016
68 | GAGGCC | 2.03 ± 0.031 | 1.93 ± 0.023
69 | CAGGCG | 1.96 ± 0.035 | 1.837 ± 0.0025

Row | Variant | normalized RNA/DNA level with ligand (log10) [1] | normalized RNA/DNA level without ligand (log10) [2]
70 | UAGGCG | 1.892 ± 0.01 | 1.67 ± 0.037
71 | CAGGCU | 1.938 ± 0.0094 | 1.919 ± 0.0073
72 | AAGGCU | 1.9 ± 0.032 | 1.83 ± 0.05
73 | UAGGCU | 1.957 ± 0.013 | 1.89 ± 0.027
74 | CAGGGA | 1.95 ± 0.04 | 1.781 ± 0.014
75 | GAGGGA | 1.9 ± 0.053 | 1.52 ± 0.022
76 | UAGGGA | 1.861 ± 0.011 | 1.49 ± 0.035
77 | CAGGGC | 1.99 ± 0.056 | 1.84 ± 0.052
78 | UAGGGC | 1.962 ± 0.01 | 1.88 ± 0.057
79 | GAGGGG | 1.814 ± 0.015 | 1.34 ± 0.033
80 | CAGGGU | 1.884 ± 0.017 | 1.75 ± 0.021
81 | GAGGGU | 1.93 ± 0.032 | 1.689 ± 0.014
82 | GAGGUA | 1.862 ± 0.011 | 1.673 ± 0.0085
83 | UAGGUA | 1.96 ± 0.033 | 1.84 ± 0.036
84 | CAGGUC | 1.94 ± 0.015 | 1.874 ± 0.011
85 | AAGGUC | 1.95 ± 0.08 | 1.89 ± 0.016
86 | GAGGUC | 2 ± 0.043 | 1.843 ± 0.016
87 | CAGGUG | 1.9 ± 0.025 | 1.77 ± 0.03
88 | CAGGUU | 1.975 ± 0.0057 | 1.86 ± 0.0041
89 | GAGGUU | 1.97 ± 0.035 | 1.86 ± 0.023
90 | UAGGUU | 1.961 ± 0.0077 | 1.85 ± 0.015
91 | CAGUAA | 1.855 ± 0.012 | 1.53 ± 0.081
92 | UAGUAA | 1.939 ± 0.016 | 1.77 ± 0.022

Row | Variant | normalized RNA/DNA level with ligand (log10) [1] | normalized RNA/DNA level without ligand (log10) [2]
93 | CAGUAC | 1.898 ± 0.0032 | 1.668 ± 0.015
94 | UAGUAC | 1.94 ± 0.031 | 1.81 ± 0.035
95 | UAGUAU | 1.93 ± 0.041 | 1.761 ± 0.015
96 | CAGUCA | 1.93 ± 0.025 | 1.6768 ± 0.0013
97 | CAGUCC | 1.984 ± 0.0083 | 1.88 ± 0.024
98 | AAGUCC | 1.893 ± 0.016 | 1.81 ± 0.072
99 | GAGUCC | 2.015 ± 0.017 | 1.853 ± 0.013
100 | CAGUCG | 1.98 ± 0.025 | 1.888 ± 0.0091
101 | GAGUCG | 1.84 ± 0.019 | 1.38 ± 0.02
102 | UAGUCG | 1.924 ± 0.013 | 1.737 ± 0.0043
103 | CAGUCU | 1.98 ± 0.005 | 1.792 ± 0.016
104 | GAGUCU | 1.96 ± 0.026 | 1.84 ± 0.01
105 | UAGUCU | 1.96 ± 0.028 | 1.88 ± 0.019
106 | CAGUGC | 1.96 ± 0.0096 | 1.814 ± 0.0038
107 | AAGUGC | 1.879 ± 0.018 | 1.53 ± 0.036
108 | UAGUGC | 1.95 ± 0.038 | 1.712 ± 0.014
109 | CAGUUA | 1.87 ± 0.055 | 1.49 ± 0.035
110 | GAGUUA | 1.891 ± 0.0028 | 1.64 ± 0.056
111 | UAGUUA | 1.942 ± 0.013 | 1.861 ± 0.0033
112 | CAGUUC | 1.91 ± 0.11 | 1.81 ± 0.031
113 | AAGUUC | 1.9 ± 0.052 | 1.787 ± 0.0052
114 | GAGUUC | 1.92 ± 0.093 | 1.86 ± 0.053
115 | UAGUUC | 1.943 ± 0.0072 | 1.87 ± 0.008
